Data reported in patent publication US20230406951A1 (Pfizer, published 2023).
Where a chain is given by its changes, count along the chain named.

T1: human TNFR2 (human, UniProt P20333 23-461)
T1 construct: expressed on the surface of CHO cells; also called HuTNFR2; TNFRSF1B
T1 sequence: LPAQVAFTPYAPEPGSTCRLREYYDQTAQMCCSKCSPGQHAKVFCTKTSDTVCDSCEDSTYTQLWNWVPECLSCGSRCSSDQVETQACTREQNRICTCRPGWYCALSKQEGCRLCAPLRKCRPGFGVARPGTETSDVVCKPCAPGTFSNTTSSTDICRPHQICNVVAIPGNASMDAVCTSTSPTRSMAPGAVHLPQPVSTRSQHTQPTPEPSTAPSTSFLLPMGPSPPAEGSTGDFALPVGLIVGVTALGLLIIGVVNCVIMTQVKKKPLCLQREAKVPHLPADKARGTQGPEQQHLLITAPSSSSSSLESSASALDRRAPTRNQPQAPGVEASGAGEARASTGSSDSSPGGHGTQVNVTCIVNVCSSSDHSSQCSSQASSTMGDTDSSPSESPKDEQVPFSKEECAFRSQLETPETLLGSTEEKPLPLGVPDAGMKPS

B1: IgG 1945 (antibody, name in Kabat numbering, V domains shown)
VH: QVQLVQSGAEVKKPGASVKVSCKVSGFSFPSSGVDWVRQAPGQGLEWLGVTRGEGSTHYNQKFQGRVTITKDTSKSTVYMELSSLRSEDTAVYYCASGEWDEGFVYWGQGTLVTVSS
VL: DIQLTQSPSFLSASVGDRVTITCKASQNVGTAVAWYQQKPGKAPKLLIYAASTLQSGVPSRFSGSGSGTEFTLTISSLQPEDFATYYCLQYSSYPLTFGGGTKVEIKR
notes: IgG
B2: IgG 1916 (antibody, name in Kabat numbering, V domains shown)
VH: B1 VH with R52W, E54V, W100Q
VL: B1 VL with L89Q
notes: IgG
B3: IgG 1938 (antibody, name in Kabat numbering, V domains shown)
VH: B1 VH with R52L, E54H
VL: B1 VL with Y91K
notes: IgG
B4: IgG 1937 (antibody, name in Kabat numbering, V domains shown)
VH: B1 VH with R52F, G53Q
VL: B1 VL with Y91K
notes: IgG
B5: IgG 1949 (antibody, name in Kabat numbering, V domains shown)
VH: B1 VH with R52W, E54V, W100S, D101T
VL: B1 VL
notes: IgG
B6: IgG 1958 (antibody, name in Kabat numbering, V domains shown)
VH: B1 VH with W100H
VL: B1 VL with L89Q
notes: IgG
B7: IgG 1954 (antibody, name in Kabat numbering, V domains shown)
VH: B1 VH with R52K, E54Q, W100H
VL: B1 VL with L89Q
notes: IgG
B8: IgG 1910 (antibody, name in Kabat numbering, V domains shown)
VH: B1 VH with R52F, G53Q
VL: B1 VL with L89Q
notes: IgG
B9: IgG 1914 (antibody, name in Kabat numbering, V domains shown)
VH: B1 VH with R52W, E54V, W100H
VL: B1 VL with L89Q
notes: IgG
B10: IgG 1909 (antibody, name in Kabat numbering, V domains shown)
VH: B1 VH
VL: B1 VL with L89Q
notes: IgG
B11: IgG 1959 (antibody, name in Kabat numbering, V domains shown)
VH: B1 VH with W100R
VL: B1 VL with L89Q
notes: IgG
B12: IgG 1950 (antibody, name in Kabat numbering, V domains shown)
VH: B1 VH with R52W, E54V, W100H
VL: B1 VL
notes: IgG
B13: IgG 1941 (antibody, name in Kabat numbering, V domains shown)
VH: B1 VH with R52W, E54V, W100H
VL: B1 VL with Y91K
notes: IgG
B14: IgG 1908 (antibody, name in Kabat numbering, V domains shown)
VH: B1 VH with R52K, E54Q
VL: B1 VL with L89Q
notes: IgG
B15: IgG 1953 (antibody, name in Kabat numbering, V domains shown)
VH: B1 VH with R52K, E54Q, W100S, D101T
VL: B1 VL with L89Q
notes: IgG
B16: IgG 1948 (antibody, name in Kabat numbering, V domains shown)
VH: B1 VH with R52H, E54S
VL: B1 VL
notes: IgG
B17: IgG 1912 (antibody, name in Kabat numbering, V domains shown)
VH: B1 VH with R52H, E54S
VL: B1 VL with L89Q
notes: IgG
B18: IgG 1911 (antibody, name in Kabat numbering, V domains shown)
VH: B1 VH with R52L, E54H
VL: B1 VL with L89Q
notes: IgG
B19: IgG 1936 (antibody, name in Kabat numbering, V domains shown)
VH: B1 VH
VL: B1 VL with Y91K
notes: IgG
B20: IgG 1956 (antibody, name in Kabat numbering, V domains shown)
VH: B1 VH with R52K, E54Q, W100Q
VL: B1 VL with L89Q
notes: IgG
B21: IgG 1957 (antibody, name in Kabat numbering, V domains shown)
VH: B1 VH with W100S, D101T
VL: B1 VL with L89Q
notes: IgG
B22: IgG 1943 (antibody, name in Kabat numbering, V domains shown)
VH: B1 VH with R52W, E54V, W100Q
VL: B1 VL with Y91K
notes: IgG
B23: IgG 1947 (antibody, name in Kabat numbering, V domains shown)
VH: B1 VH with R52L, E54H
VL: B1 VL
notes: IgG
B24: IgG 1940 (antibody, name in Kabat numbering, V domains shown)
VH: B1 VH with R52W, E54V, W100S, D101T
VL: B1 VL with Y91K
notes: IgG
B25: IgG 1955 (antibody, name in Kabat numbering, V domains shown)
VH: B1 VH with R52K, E54Q, W100R
VL: B1 VL with L89Q
notes: IgG
B26: IgG 1952 (antibody, name in Kabat numbering, V domains shown)
VH: B1 VH with R52W, E54V, W100Q
VL: B1 VL
notes: IgG
B27: IgG 1942 (antibody, name in Kabat numbering, V domains shown)
VH: B1 VH with R52W, E54V, W100R
VL: B1 VL with Y91K
notes: IgG
B28: IgG 1951 (antibody, name in Kabat numbering, V domains shown)
VH: B1 VH with R52W, E54V, W100R
VL: B1 VL
notes: IgG
B29: IgG 1915 (antibody, name in Kabat numbering, V domains shown)
VH: B1 VH with R52W, E54V, W100R
VL: B1 VL with L89Q
notes: IgG
B30: IgG 1944 (antibody, name in Kabat numbering, V domains shown)
VH: B1 VH with R52K, E54Q
VL: B1 VL
notes: IgG
B31: IgG 1913 (antibody, name in Kabat numbering, V domains shown)
VH: B1 VH with R52W, E54V, W100S, D101T
VL: B1 VL with L89Q
notes: IgG
B32: IgG 1961 (antibody, name in Kabat numbering, V domains shown)
VH: B1 VH with R52F, G53Q, W100S, D101T
VL: B1 VL with L89Q
notes: IgG
B33: IgG 1946 (antibody, name in Kabat numbering, V domains shown)
VH: B1 VH with R52F, G53Q
VL: B1 VL
notes: IgG

What follows are binders tested against T1, human TNFR2 (assay: binding to human TNFR2 CHO cells).

Binder | binding result
B1 | no binding
B2 | no binding
B3 | no binding
B4 | no binding
B5 | no binding
B6 | no binding
B7 | no binding
B8 | no binding
B9 | no binding
B10 | no binding
B11 | no binding
B12 | no binding
B13 | no binding
B14 | no binding
B15 | no binding
B16 | no binding
B17 | no binding

Binder | binding result
B18 | no binding
B19 | no binding
B20 | no binding
B21 | no binding
B22 | no binding
B23 | no binding
B24 | no binding
B25 | no binding
B26 | no binding
B27 | no binding
B28 | no binding
B29 | no binding
B30 | no binding
B31 | no binding
B32 | no binding
B33 | no binding
